The target of assay [1] is T1, Recombinant Human VEGFR2/KDR Protein, His tag (hVEGFR2-his) (human, UniProt P35968 20-764).
T1 construct: Expressed in HEK293, bought from ACRO Biosystems; also called human VEGFR2-his; Human VEGFR2/KDR-His
The experiment in a line: SPR (Biacore), antibody captured by anti-Fc, antigen 2.5-80 nM. In outline:
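Human or mouse Fc-captured antibody (200–300 RU) on anti-Fc CM5 surface; antigen injected at 2.5–80 nM in HBS-EP pH 7.4 with 180 s association. Reference-cell-subtracted sensorgrams; regeneration with glycine pH 1.5.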

In assay [2] the target is T1, Recombinant Human VEGFR2/KDR Protein, …. Briefly: ELISA, hVEGFR2-his coated, anti-human Fc-HRP; antibody made in 293T cells. As to the method:
Same protocol of Example 4 except using HRP conjugated goat anti-human Fc antibody as secondary antibody. Binding to hVEGFR2-his and rhesus VEGFR2-his (Acrobiosystems, Cat #VE2-C52H3) were also analyzed head-to-head.
Same protocol of Example 9.
A general note: In an ELISA, binding on a coated surface is turned into a signal by an enzyme label.

Assay [3] shares this target. Briefly: competition ELISA: VEGF-A coated (0.25 ug/ml), antibody titrated together with 1 ug/ml human VEGFR2, detection with mouse anti-VEGFR2 serum and anti-mouse Fc-HRP; blocked ligand VEGF-A. The method, then: For this assay, 0.25 μg/ml VEGF-A was coated on ELISA plate before a mixture of chimeric antibodies and VEGFR2 were added. To detect free VEGF-A (not bind to VEGFR2), 1:1000 diluted mouse serum (mouse previous immunized with human VEGFR2) were added and HRP conjugated goat anti-mouse Fc antibody was used as secondary antibody.
Same protocol of Example 10. Briefly, 0.25 μg/ml VEGF-A was coated overnight at 4° C. After blocking, serial diluted 54-H2L1, 48-H3L1, Ramucirumab and 1 μg/ml human VEGFR2 or rhesus VEGFR2 were added at the same time for 2 hour-incubation. After wash, mouse serum containing polyclone VEGFR2 antibody and HRP conjugated goat anti-mouse Fc antibody were added for detection of free VEGF-A coated on the plates (see FIGS. 13A and 13B).

B1: 54-H2L1 (humanized Mab54) (antibody, human IgG1, V domains shown)
VH: EVQLVESGGGLVKPGGSLRLSCAASGFTFSMYGMSWVRQAPGKRLEWVASISIGGSYTYYADSVKGRFTISRDNAKNTLYLQMNSLRAEDTAVYYCARELDGNYDYWGQGTTLTVSS
VL: DIVITQDELSLPVTFGESVSISCRSSKSLLYKDGKTYLNWFLQRPGQSPQLLIYLMSTRASGVSDRFSGSGSGTDFTLKISRVEAEDVGIYYCQQLVEYPFTFGSGTKLEIK
notes: also called 54-H2L1 (CHO); humanized 54 variant H2L1
A word on the Kd: it is the concentration at which binding is half-saturated. Broadly, the koff is a measure of how fast the partners let go of each other. What is called kon is the second-order rate constant of association. One may read the EC50 as the concentration giving half of the maximal effect. As a reminder, the IC50 is the concentration that inhibits the measured activity by half. Turning to B1, in assay [1], the Kd worked out at 2.51 nM, the dissociation rate constant (koff) came to 0.000138 s⁻¹ and the kon came out at 54800 M⁻¹ s⁻¹. For the same molecule, the EC50 in assay [2] was 0.0288 µg/mL. In addition, in assay [3], the half-maximal inhibitory concentration (IC50) was 0.654 µg/mL.

The record behind these values is US20240209099A1 (SUZHOU TRANSCENTA THERAPEUTICS, published 2024).
